Measurements from the supplement of paper PMC7877785.
± gives the uncertainty stated by the source.

Test: self-splicing fitness, log relative to wild type (ln ratio); higher = more splicing; Tetrahymena group I intron in knt gene, E. coli kanamycin selection, DiMSum; sequences stand for … in CUCUCU…GGAGGGAAAAGUUAUCAGGCAUGCACCUGGUAGCUAGUCUUUAAACCAAUAGAUUGCAUCGGUUUAAAAGGCAAGACCGUCAAAUUGCGGGAAAGGGGUCAACAGCCGUUCAGUACCAAGUCUCAGGGGAAACUUUGAGAUGGCCUUGCAAAGGGUAUGGUAAUAAGCUGACGGACAUGGUCCUAACCACGCAGCCAAGUCCUAAGUCAACAGAUCUUCUGUUGAUAUGGAUGCAGUUCACAGACUAAAUGUCGGUCGGGGAAGAUGUAUUCUUCUCAUAAGAUAUAGUCGGACCUCUCCUUAAUGGGAGCUAGCGGAUGAAGUGAUGCAACACUGGAGCCGCUGGGAACUAAUUUGUAUGCGAAAGUAUAUUGAUUAGUUUUGGAGUACUCGUGGUCG
Procedure, shortened: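 DiMSum derived fitness as the error-weighted combination of fold changes across replicates, kanamycin versus no kanamycin, normalised to wild type. E. coli BL21(DE3) held the library, which randomised all eight P1ex-region intron nucleotides within the knt kanamycin-resistance gene on pET-22b(+). Six replicate transformations grew overnight at 37°C or 30°C on LB agar with or without 25 μg/mL kanamycin, also containing 100 μg/mL carbenicillin, 50 μM IPTG and 0.2% rhamnose, and pooled colonies were amplicon-sequenced on an Illumina HiSeq 2500.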

Sequence	self-splicing fitness (ln) (30 °C)	self-splicing fitness (ln) (37 °C)
CUCAAGCAAUAUUACGGUAA	-1.8 ± 0.27	-1.66 ± 0.18
CACUAGCAAUAUUACGGUAC	-3.09 ± 0.2	-2.87 ± 0.19
UGGUAGCAAUAUUACGGGCC	-1.4 ± 0.23	–
AUUUAGCAAUAUUACGGAUG	-1.94 ± 0.14	-1.91 ± 0.2
UCAUAGCAAUAUUACGACUU	-3.87 ± 0.28	-2.42 ± 0.39
AUUGAGCAAUAUUACGCUCU	-3.63 ± 0.24	-2.27 ± 0.17
GAUGAGCAAUAUUACGGAAA	–	-2.2 ± 0.31
UCCCAGCAAUAUUACGAACA	-1.51 ± 0.13	-0.139 ± 0.12
UCGAAGCAAUAUUACGGCGU	-0.22 ± 0.087	-0.249 ± 0.12
AACCAGCAAUAUUACGACGA	-0.496 ± 0.076	-0.38 ± 0.071
AAGUAGCAAUAUUACGUUGC	-3.66 ± 0.14	-3.19 ± 0.21
CAGCAGCAAUAUUACGCUGG	-2.69 ± 0.15	-2.43 ± 0.17
UUGAAGCAAUAUUACGGAUC	-0.951 ± 0.15	-0.501 ± 0.18
AGGCAGCAAUAUUACGAAAG	-3.39 ± 0.22	-2.46 ± 0.22
UACGAGCAAUAUUACGCAAC	-2.85 ± 0.22	-2.19 ± 0.26
AGAGAGCAAUAUUACGACCA	–	-0.796 ± 0.48
CCAAAGCAAUAUUACGGAUG	-1.44 ± 0.069	-1.48 ± 0.1
CGAUAGCAAUAUUACGACGU	-0.903 ± 0.065	0.0313 ± 0.07
UCAGAGCAAUAUUACGAUAA	–	-2.46 ± 0.41
UGCCAGCAAUAUUACGCGCG	-0.853 ± 0.083	-0.528 ± 0.1
ACUCAGCAAUAUUACGACAC	-1.44 ± 0.12	-0.127 ± 0.14
ACGUAGCAAUAUUACGUGCU	-1.94 ± 0.11	-0.828 ± 0.12

Sequence	self-splicing fitness (ln) (30 °C)	self-splicing fitness (ln) (37 °C)
AAAAAGCAAUAUUACGCUAU	-2.04 ± 0.11	-1.31 ± 0.11
CAUUAGCAAUAUUACGAGGU	-3.01 ± 0.27	-2.66 ± 0.3
AGAGAGCAAUAUUACGCGGA	–	-2.21 ± 0.34
UCGAAGCAAUAUUACGAUUA	-1.19 ± 0.12	-0.794 ± 0.11
ACAGAGCAAUAUUACGGUCA	-2.73 ± 0.22	-0.944 ± 0.17
CAGUAGCAAUAUUACGAGUA	-2.34 ± 0.21	-2.57 ± 0.31
ACAGAGCAAUAUUACGACGA	-0.906 ± 0.43	-1.83 ± 0.38
GUCAAGCAAUAUUACGCACG	-1.96 ± 0.13	-1.49 ± 0.19
GUUGAGCAAUAUUACGAAUG	–	-1.68 ± 0.44
GGCGAGCAAUAUUACGUGGC	-3.3 ± 0.25	-1.73 ± 0.25
AAUUAGCAAUAUUACGGACC	–	-1.07 ± 0.48
ACGUAGCAAUAUUACGGCCG	-0.0843 ± 0.13	-0.11 ± 0.19
GACUAGCAAUAUUACGAUAU	-0.566 ± 0.075	-0.0805 ± 0.1
CACCAGCAAUAUUACGAGGA	-2.74 ± 0.14	-1.91 ± 0.13
GCAAAGCAAUAUUACGUCCA	-1.64 ± 0.12	-0.284 ± 0.11
GCCUAGCAAUAUUACGAUCU	-2.18 ± 0.079	-0.334 ± 0.071
AAAUAGCAAUAUUACGUCGG	-2.54 ± 0.14	-1.14 ± 0.13
GUCCAGCAAUAUUACGCUCA	-0.307 ± 0.092	-0.112 ± 0.11
UGUCAGCAAUAUUACGCAGU	-1.27 ± 0.18	-0.898 ± 0.27
AAGGAGCAAUAUUACGGAUU	-2.19 ± 0.11	-1.69 ± 0.095
AGAUAGCAAUAUUACGUGAA	-1.95 ± 0.082	-1.85 ± 0.12
CUUGAGCAAUAUUACGUCAU	-3.58 ± 0.29	-2.88 ± 0.31
